Test results reported in patent US8022177B2, “Peptides and calcium regulation in mammalian cells” (The Board of Trustees of the University of Illinois, priority 2005, dated 2011).

Experiments:
[1] = tested on: endogenous LVA calcium current in HL-1 cells; assay: Whole-cell patch clamp of endogenous LVA calcium current in HL-1 cells transfected with γ subunits; type: cell-based, mouse
Procedure: HL-1 cells were a gift from Dr. William C. Claycomb and were maintained as previously reported. Briefly, HL-1 cells were grown in HL-1 medium containing Claycomb medium (JRH Biosciences) supplemented with 10% fetal bovine serum (JRH Biosciences), 0.1 mM norepinephrine (Sigma), 2 mM L-glutamine (Sigma), and 100 U/ml:100 μg/ml:250 ng/ml of penicillin/streptomycin/ amphotericin B (Life Technologies) in a humidified 5% CO2 incubator at 37° C. Cells were passed when confluent at a 1:3 dilution into flasks or plates pre-coated with a 1:80 dilution of fibronectin and 0.02% gelatin (Sigma). Cells from passages 86-108 were used for this study.
2.3. Transfection. Untransfected HEK-293 cells, HEK-293 cell lines stably transfected with Cav3.1, and HL-1 cells were transiently transfected with vectors containing γ subunit, GFP, and modified CFP cDNAs using Lipofectamine 2000 reagent (InVitrogen) as per the manufacturer's recommendations. HEK-293 cells were grown to 70-80% confluence before transfection. HL-1 cells were grown to 50-75% confluence before transfection.
2.4. Electrophysiology. Whole-cell calcium currents were recorded using an Axopatch-1 D patch clamp system and Clampex 8.0 software. Pipettes were fabricated from borosilicate glass and had typical resistances of 2-4 MΩ. […]
Recordings from HEK-293 cells were made 48-96 h posttransfection, at which time expression, as measured by GFP fluorescence, peaked. […] Current-voltage relationships for all HEK-293 and HL-1 cells were measured using 50 ms test depolarizations. Peak current amplitudes for activation curves were determined by fitting tail currents, elicited by stepping membrane voltage from varying test potentials to −60 mV, with the Boltzman equation. […] Inactivation curves were determined by fitting peak amplitudes of currents, observed in a test pulse to −20 mV, following 500 ms steps to varying potentials, with the Boltzman equation. Time to peak was determined using the current-voltage protocol described above. […]

[2] = molecular target: T1, Cav3.1 (Homo sapiens, UniProt O43497); assay: Whole-cell patch clamp of Cav3.1 LVA current in HEK/Cav3.1 cells transfected with γ6/γ4 chimeric and truncated constructs (Example 2); type: cell-based; details: Table 1 (Example 2)
T1 construct: expressed in transfected cells; host or cells: HEK-293, stably transfected
T1 sequence (O43497 whole entry, the tested form may be a part): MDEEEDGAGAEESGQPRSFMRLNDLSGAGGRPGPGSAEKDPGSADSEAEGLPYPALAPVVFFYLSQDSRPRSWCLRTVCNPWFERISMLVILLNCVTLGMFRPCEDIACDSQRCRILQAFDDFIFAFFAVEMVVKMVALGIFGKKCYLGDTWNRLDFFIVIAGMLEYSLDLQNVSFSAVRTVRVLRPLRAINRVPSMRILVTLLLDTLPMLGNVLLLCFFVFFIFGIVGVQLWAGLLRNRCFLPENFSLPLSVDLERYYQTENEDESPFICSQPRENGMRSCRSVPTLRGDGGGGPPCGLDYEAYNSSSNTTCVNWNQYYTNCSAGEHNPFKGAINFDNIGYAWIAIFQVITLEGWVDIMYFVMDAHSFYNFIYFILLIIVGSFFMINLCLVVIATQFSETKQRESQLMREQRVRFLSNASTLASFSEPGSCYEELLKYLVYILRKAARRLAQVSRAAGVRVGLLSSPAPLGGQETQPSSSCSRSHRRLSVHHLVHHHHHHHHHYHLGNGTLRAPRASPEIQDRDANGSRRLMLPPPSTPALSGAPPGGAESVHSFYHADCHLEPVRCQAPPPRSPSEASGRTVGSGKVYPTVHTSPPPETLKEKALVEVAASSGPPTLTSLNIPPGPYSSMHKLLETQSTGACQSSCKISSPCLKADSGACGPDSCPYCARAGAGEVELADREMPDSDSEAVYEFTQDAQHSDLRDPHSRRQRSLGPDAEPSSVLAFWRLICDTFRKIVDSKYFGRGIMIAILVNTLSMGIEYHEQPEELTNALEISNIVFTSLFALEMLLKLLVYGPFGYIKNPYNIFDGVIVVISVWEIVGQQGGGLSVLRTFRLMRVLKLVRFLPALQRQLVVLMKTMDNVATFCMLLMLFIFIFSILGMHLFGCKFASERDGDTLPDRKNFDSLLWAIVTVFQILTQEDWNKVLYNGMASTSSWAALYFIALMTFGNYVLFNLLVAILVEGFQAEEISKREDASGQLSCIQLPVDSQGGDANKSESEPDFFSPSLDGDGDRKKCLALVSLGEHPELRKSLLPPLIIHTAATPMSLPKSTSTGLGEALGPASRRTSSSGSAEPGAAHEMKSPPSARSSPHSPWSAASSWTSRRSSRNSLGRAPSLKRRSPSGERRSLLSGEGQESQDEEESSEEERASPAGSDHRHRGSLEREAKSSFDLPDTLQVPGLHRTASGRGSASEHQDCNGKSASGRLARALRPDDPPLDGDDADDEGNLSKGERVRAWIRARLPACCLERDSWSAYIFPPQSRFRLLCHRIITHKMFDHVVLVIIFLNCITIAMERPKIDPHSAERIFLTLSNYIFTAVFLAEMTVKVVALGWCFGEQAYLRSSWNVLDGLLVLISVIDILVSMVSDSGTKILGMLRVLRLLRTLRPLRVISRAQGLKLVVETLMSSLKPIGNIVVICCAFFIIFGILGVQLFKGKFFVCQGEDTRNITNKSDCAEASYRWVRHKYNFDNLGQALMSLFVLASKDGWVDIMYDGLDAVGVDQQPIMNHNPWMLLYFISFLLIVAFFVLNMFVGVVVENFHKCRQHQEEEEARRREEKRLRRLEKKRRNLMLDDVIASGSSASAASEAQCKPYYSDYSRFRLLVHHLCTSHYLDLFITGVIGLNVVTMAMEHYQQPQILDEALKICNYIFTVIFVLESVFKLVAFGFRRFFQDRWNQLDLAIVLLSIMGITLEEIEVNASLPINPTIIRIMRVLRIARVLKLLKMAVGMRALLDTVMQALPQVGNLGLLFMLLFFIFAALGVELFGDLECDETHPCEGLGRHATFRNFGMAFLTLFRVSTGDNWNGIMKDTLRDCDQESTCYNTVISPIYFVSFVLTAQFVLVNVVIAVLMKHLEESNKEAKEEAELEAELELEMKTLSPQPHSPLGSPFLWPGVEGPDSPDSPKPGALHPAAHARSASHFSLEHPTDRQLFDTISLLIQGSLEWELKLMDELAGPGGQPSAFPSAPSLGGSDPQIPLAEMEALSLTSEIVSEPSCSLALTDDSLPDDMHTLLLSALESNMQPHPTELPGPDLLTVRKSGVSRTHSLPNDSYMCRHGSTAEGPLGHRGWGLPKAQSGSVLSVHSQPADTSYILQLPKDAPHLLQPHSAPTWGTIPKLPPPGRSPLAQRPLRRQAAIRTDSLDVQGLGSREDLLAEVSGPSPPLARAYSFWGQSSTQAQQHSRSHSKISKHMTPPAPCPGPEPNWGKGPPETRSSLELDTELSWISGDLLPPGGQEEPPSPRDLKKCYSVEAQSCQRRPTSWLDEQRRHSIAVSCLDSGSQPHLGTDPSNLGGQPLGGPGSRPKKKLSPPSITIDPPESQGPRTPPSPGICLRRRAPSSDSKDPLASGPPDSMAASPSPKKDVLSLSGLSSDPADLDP
Procedure: Transfection—HEK-293 cell lines stably transfected with Cav3.1 were transiently transfected with vectors containing γ subunit cDNAs using Lipofectamine 2000 reagent (Invitrogen) as per the manufacturer's recommendations. HEK-293 cells were grown to 70-80% confluence before transfection.
Electrophysiology—Whole-cell calcium currents were recorded using an Axopatch-1D patch clamp system and Clampex 8.0 software. Pipettes were fabricated from borosilicate glass and had typical resistances of 2-4 MΩ. The pipette solution contained (in mM): 130 NaCl, 10 EGTA, 2 MgCl2, 1 CaCl2, 10 HEPES, 3 Tris-ATP, and 0.3 Tris-GTP, adjusted to pH 7.4 with NaOH and 280 mOsm with sucrose. The bath solution contained (in mM): 137 NaCl, 1 KCl, 1 MgCl2, 0.33 NaH2PO4, 2 CaCl2, 10 HEPES, and 30 μM TTX, adjusted to pH 7.4 with NaOH and 280 mOsm with sucrose.
Recordings from HEK-293 cells were made 48-96 hours post-transfection, at which time expression, as measured by GFP fluorescence, peaked. All HEK-293 data is from current records in which pipette and whole-cell capacitance were about 100% compensated and series resistance was compensated to >80%. Series resistance values were typically <10 MΩ (megaohms), and no records were used in which the voltage error (as defined by Ver=Imax×Ra) was greater than 5 mV. The holding potential of all protocols used for HEK-293 cells was −100 mV except for steady-state inactivation protocols where the holding potential was −120 mV. Current-voltage relationships for all HEK-293 cells were measured using 50 ms test depolarizations. Peak current amplitudes for activation curves were determined by fitting tail currents, elicited by stepping membrane voltage from varying test potentials to −60 mV, with the Boltzman equation. Test potential steps for activation protocols were of varied durations, corresponding to the time to peak of the elicited current. Inactivation curves were determined by fitting peak amplitudes of currents, observed in a test pulse to −20 mV, following 500 ms steps to varying potentials, with the Boltzman equation. Time to peak was determined using the current-voltage protocol described above. Inactivation time constants were determined by fitting the decay phase of currents to an exponential equation and deactivation time constants were determined by fitting the decay phase of tail currents to an exponential equation. […] When a double exponential equation was used to fit Cav3.1 tail currents, the magnitude of the fast component was about 10 fold that of the slow component. Currents were recorded at 40 kHz and on-line filtered at 5. In some cases currents were off-line filtered at 1 kHz to further reduce noise. Current-voltage relationships and tail currents were recorded from HEK cells using an on-line P/−4 subtraction procedure. The average membrane capacitance of untransfected HEK-293 cells in pilot experiments was 12.5+/−0.4 pF (n=8).
Statistical Analysis—All data are reported as mean±SEM and tested for significance by one-way ANOVA. A value of P<0.05 was considered significant and when significant p-values were encountered groups were compared using the Tukey post-hoc test.

Molecule	LVA current density [1]	Activation V 0.5 [2]	Activation k [2]	Deactivation tau @ −100 mV, Fast [2]	Inactivation V 0.5 [2]	Inactivation k [2]	Inactivation tau @−20 mV [2]	Time to peak @ −20 mV [2]	V peak [2]	Reduction of endogenous LVA current density from control ([1]; transient expression)
γ4: rat calcium channel γ4 subunit (AF361341), SEQ ID NO:47 (protein, listed as Rattus norvegicus) MVRCDRGLQMLLTTAGAFAAFSLMAIAIGTDYWLYSSAHICNGTNLTMDDGPPPRRARGDLTHSGLWRVCCIEGIYKGHCFRINHFPEDNDYDHDSSEYLLRIVRASSVFPILSTILLLLGGLCIGAGRIYSRKNNIVLSAGILFVAAGLSNIIGIIVYISSNTGDPSDKRDEDKKNHYNYGWSFYFGALSFIVAETVGVLAVNIYIEKNKELRFKTKREFLKASSSSPYSRMPSYRYRRRRSRSSSRSTEASPSRDASPVGLKITGAIPMGELSMYTLSREPLKVTTAASYSPDQDAGFLQMHDFFQQDLKEGFHVSMLNRRTTPV	9.14±1.34 pA/pF	−37.3 ± 0.9 (n = 8) mV	11.8 ± 0.5 (n = 8)	1.84 ± 0.28 (n = 8) ms	−79.2 ± 1.5 (n = 7) mV	6.1 ± 0.2 (n = 7)	15.8 ± 0.7 (n = 7) ms	5.2 ± 0.5 (n = 9) ms	−30.6 ± 1.5 (n = 9) mV	
γ6L: rat calcium channel γ6 subunit, long isoform (AF361343), SEQ ID NO:48 (protein, listed as Rattus norvegicus) MMWSNFFMQEEDRRRTAVGRRRAQEQQNLGLTPEREGKIKLGLLVAIVGATLAVLAVGTEFWVELNTYKTNGSAVCEAAHLGLWKVCIKRLWQADVPAGRETCGPAELPGEANCTYFKFFTTGENAHIFQRTTKKEVNLAAAVIAVLGLTAMALGCLCVIMVLSKGAEFLLRLGAVCFGLSGLLLFVSLEVFRHSVRALLQGVNPETPPAPRLAYEYSWSLGCGVGAGLILLLGGVCFLLLTLPSWPWRSLCPKRGGPTA	3.37±0.62 pA/pF	−36.3 ± 6.2 (n = 4) mV	12.7 ± 1.5 (n = 4)	1.54 ± 0.48 (n = 4) ms	−78.5 ± 2.6 (n = 6) mV	5.4 ± 0.3 (n = 6)	18.6 ± 1.1 (n = 6) ms	6.0 ± 0.8 (n = 5) ms	−31.1 ± 3.1 (n = 9) mV	63%
